Reference: paper PMC9638026, “DNA double-strand break-derived RNA drives TIRR/53BP1 complex dissociation”

Columns and labels:
53BP1-Tudor = 53BP1-Tudor (Homo sapiens, UniProt Q12888 1484-1603); assay: EMSA; 20 mM Mg2+; SPR: 20 mM HEPES pH 6, 300 mM NaCl, 0.05% P20, 25 C; EMSA: 50 mM HEPES, 50 mM NaCl, 5% glycerol, 20 mM MgCl2, 0.01% Tween 20, 37 C 15 min, 10 nM probe; settings: protein: commercial; label: 32P 5' in EMSA; hairpin
TIRR (6-211)-His = TIRR (6-211)-His (UniProt Q9BRJ7 6-211); assay: SPR; SPR: 20 mM HEPES pH 6, 300 mM NaCl, 0.05% P20, 25 C; EMSA: 50 mM HEPES, 50 mM NaCl, 5% glycerol, 20 mM MgCl2, 0.01% Tween 20, 37 C 15 min, 10 nM probe; settings: protein: recombinant, tags: His
Chain of TIRR (6-211)-His (Q9BRJ7 6-211): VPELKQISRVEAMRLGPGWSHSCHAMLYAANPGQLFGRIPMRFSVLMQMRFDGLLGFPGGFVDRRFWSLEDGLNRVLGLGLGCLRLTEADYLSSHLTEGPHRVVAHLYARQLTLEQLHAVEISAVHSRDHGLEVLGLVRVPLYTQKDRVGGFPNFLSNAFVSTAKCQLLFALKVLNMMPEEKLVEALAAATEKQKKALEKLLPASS

Chain of 53BP1-Tudor (Q12888 1484-1603): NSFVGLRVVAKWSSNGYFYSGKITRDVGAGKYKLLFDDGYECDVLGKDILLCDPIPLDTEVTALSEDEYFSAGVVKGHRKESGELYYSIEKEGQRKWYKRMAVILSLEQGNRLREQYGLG

## CGCUCCCAAAAAAAAAAACCGAGCG (structured_RNA) [RNA beacon]
53BP1-Tudor
  binding result: no binding
TIRR (6-211)-His; label: 32P 5' in EMSA, hairpin
  Kd: ~100 µM

B1: dsRNA (dsRNA)
RNA 1: GGACAAGAUGCCUUAUGUGG
RNA 2: CCACAUAAGGCAUCUUGUCC
TIRR (6-211)-His; blunt
  Kd: ~200 µM

## GGACAAGAUGCCUUAUGUGGACUUCACCACAUAAGGCAUCUUGUCC (structured_RNA) [RNA hairpin]
TIRR (6-211)-His; hairpin
  Kd: ~100 µM
